These results are taken from US8697366 (SEOUL NATIONAL UNIVERSITY INDUSTRY FOUNDATION, dated 2014).

For test [1], the target named is T1, β-catenin (UniProt P35222 1-781).
T1 sequence (looked up): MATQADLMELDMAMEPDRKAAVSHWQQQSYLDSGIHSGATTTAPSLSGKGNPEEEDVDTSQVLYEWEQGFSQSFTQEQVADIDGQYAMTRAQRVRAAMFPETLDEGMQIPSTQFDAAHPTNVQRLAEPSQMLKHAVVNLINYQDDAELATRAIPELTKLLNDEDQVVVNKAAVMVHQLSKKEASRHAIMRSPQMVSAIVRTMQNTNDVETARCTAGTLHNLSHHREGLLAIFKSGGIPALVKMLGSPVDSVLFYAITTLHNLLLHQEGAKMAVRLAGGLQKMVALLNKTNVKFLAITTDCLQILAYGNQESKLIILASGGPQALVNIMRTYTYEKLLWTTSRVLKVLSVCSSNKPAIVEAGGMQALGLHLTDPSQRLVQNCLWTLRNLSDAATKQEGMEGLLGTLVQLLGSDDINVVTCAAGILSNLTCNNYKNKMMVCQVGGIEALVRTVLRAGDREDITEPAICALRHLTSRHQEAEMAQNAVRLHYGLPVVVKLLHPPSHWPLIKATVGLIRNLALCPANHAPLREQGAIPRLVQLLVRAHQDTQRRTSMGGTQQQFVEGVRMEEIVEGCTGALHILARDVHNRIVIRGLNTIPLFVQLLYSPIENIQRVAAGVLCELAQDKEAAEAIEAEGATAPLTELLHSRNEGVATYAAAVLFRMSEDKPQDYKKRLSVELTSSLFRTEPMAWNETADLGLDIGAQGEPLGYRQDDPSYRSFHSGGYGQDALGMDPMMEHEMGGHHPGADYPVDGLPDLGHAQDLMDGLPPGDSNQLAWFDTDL
Nature of the test: anti-Flag M2 affinity purification from HEK293 extracts, LC-MS/MS and immunoblot of eluates. How it is done:
FIG. 1. Purification of RORα-containing complex and identification of β-catenin as a binding partner (A) RORα-containing complex was purified from extracts obtained from HEK293 cells stably expressing Flag-tagged RORα. As a negative control, a mock purification from HEK293 cells stably expressing an empty vector was performed. The bound proteins were resolved by SDS-PAGE and prepared for LC-MS/MS analysis. […] (C) β-catenin and GRIP1 were detected from the elutes by immunoblot analysis. (D) Coimmunoprecipitation of endogenous RORα with β-catenin in HEK293 cells. (E) Ni+-NTA-agarose pulldown assay was performed with plasmids expressing each GFP-tagged β-catenin deletion construct and HisMax-RORα. (F) Illustration of the structure of various β-catenin deletion constructs and binding to RORα.
Purification of RORα-Containing Complex and Identification of β-Catenin as a Binding Partner To investigate the as-yet-unidentified functional modules of RORα, we used a Flag epitope-tag strategy to purify RORα-containing complexes. We generated cell lines that stably express Flag-tagged RORα, and incubated the extracts in anti-Flag M2 affinity gel. After washing with buffer containing increasing salt concentrations of up to 500 mM, the proteins retained on the affinity chromatography column were eluted with buffer containing Flag peptide. […]
For orientation: A western blot detects proteins with antibodies after separation by electrophoresis.

A further test has as its target PKCβ2 (UniProt P05771-2 1-673). Description: in vivo coimmunoprecipitation.
Another test concerns the target PKCδ (UniProt Q05655 1-676). Description: in vivo coimmunoprecipitation.
The next test has as its target PKCη (UniProt P24723 1-683). Nature of the test: in vivo coimmunoprecipitation.
Another test addresses T2, PKCε (UniProt Q02156 1-737).
T2 sequence (looked up): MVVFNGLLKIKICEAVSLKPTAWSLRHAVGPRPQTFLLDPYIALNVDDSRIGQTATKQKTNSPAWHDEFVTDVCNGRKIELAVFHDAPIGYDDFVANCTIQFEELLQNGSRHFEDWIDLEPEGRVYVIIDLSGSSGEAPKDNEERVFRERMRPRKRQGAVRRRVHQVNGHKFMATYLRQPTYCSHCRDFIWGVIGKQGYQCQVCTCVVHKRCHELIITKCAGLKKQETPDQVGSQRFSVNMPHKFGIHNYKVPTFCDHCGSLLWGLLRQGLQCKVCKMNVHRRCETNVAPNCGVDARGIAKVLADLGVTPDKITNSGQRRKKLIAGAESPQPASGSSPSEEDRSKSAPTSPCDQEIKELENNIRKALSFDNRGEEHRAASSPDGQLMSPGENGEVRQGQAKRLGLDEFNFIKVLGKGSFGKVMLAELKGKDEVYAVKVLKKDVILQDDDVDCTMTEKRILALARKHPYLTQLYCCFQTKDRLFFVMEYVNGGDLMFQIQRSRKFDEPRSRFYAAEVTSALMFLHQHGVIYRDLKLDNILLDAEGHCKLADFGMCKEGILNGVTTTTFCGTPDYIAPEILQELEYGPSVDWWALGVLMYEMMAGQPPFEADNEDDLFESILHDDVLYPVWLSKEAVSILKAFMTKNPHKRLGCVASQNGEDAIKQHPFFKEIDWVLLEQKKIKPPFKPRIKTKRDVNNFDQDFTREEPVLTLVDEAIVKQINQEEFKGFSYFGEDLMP
Description: in vivo coimmunoprecipitation.

Test [2] concerns the target T1, β-catenin. Nature of the test: co-IP with anti-Flag antibody from HCT116 cells, immunoblot for β-catenin. How it is done:
FIG. 4. PKCα-dependent phosphorylation of RORα is crucial for downregulation of Wnt/β-catenin target genes (A) The specificity of the antibody raised against phosphorylated RORαS35 peptide (SEQ ID NO:18) was assessed by dot blot analysis. (B) Treatment of TPA increased phophorylated RORα on S35 site as assessed by immunoprecipitation with anti-phospho-RORαS35 antibody. […] (D) Treatment of Go6976, a PKCα inhibitor, abolished TPA-dependent phosphorylation of RORα as assessed by immonoblotting with anti-phospho-RORαS35 antibody. (E) HCT116 cells were transfected with Flag-RORα WT, S35D, or S35A, and the cell extracts were immunoprecipitated with anti-Flag antibody followed by immunoblotting against anti-β-catenin antibody. (F) Coimmunoprecipitation assay of β-catenin with either RORαWT or S35A in HCT116 cells after treatment with TPA in the absence or presence of Go6976. (G) ChIP analysis on the cyclin D1 promoter after transfection with Flag-RORαWT, S35A, or S35D in HCT116 cells. (H) ChIP analysis on the cyclin D1 promoter in HCT116 cells after TPA treatment for indicated time. […] (J) Real-time quantitative RT-PCR analysis of the cyclin D1 transcript in HCT116 cells in the presence of TPA for indicated time. (K) Knockdown effect of siRNA against RORα or PKCα was assessed in the expression of the cyclin D1 transcript in HCT116 cells. […]

Sequence of PKCβ2 (P05771 other isoform, or with tags, fused parts or gaps): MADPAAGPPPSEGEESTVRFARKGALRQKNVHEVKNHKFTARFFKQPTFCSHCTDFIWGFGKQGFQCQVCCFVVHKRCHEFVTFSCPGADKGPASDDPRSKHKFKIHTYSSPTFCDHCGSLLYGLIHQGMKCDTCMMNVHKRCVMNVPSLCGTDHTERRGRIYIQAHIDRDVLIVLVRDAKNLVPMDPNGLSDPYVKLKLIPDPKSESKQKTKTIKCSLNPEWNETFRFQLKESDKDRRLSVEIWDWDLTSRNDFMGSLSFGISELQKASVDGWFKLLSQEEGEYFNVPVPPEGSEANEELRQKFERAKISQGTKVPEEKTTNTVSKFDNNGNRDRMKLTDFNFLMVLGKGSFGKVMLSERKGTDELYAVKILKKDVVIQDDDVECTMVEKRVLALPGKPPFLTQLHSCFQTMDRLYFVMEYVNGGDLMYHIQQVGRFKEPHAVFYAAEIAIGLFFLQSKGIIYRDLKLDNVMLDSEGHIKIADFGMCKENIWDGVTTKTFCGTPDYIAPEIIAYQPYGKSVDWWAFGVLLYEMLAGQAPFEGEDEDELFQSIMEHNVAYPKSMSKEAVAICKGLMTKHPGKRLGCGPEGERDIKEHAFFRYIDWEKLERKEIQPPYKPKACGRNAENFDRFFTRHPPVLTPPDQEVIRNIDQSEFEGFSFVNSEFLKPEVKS
Sequence of PKCδ (Q05655 whole entry, stated change not applied): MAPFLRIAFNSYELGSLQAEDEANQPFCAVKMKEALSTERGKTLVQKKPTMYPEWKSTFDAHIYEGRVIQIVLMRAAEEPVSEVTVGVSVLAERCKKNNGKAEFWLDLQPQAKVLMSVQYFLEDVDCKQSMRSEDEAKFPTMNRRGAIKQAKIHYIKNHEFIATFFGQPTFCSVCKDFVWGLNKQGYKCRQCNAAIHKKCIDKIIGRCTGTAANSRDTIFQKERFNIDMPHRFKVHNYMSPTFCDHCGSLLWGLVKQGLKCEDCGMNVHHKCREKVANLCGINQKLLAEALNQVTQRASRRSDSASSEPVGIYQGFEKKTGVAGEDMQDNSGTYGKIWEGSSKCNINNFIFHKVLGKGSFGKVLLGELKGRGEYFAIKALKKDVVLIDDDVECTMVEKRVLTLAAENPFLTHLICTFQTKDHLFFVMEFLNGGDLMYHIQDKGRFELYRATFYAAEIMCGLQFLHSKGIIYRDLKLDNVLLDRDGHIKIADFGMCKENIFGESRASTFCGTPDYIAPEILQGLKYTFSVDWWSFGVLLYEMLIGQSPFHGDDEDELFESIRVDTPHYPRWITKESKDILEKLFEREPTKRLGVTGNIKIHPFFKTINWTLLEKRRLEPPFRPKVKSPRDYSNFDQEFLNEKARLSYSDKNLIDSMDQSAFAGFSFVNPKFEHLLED
Sequence of PKCη (P24723 whole entry): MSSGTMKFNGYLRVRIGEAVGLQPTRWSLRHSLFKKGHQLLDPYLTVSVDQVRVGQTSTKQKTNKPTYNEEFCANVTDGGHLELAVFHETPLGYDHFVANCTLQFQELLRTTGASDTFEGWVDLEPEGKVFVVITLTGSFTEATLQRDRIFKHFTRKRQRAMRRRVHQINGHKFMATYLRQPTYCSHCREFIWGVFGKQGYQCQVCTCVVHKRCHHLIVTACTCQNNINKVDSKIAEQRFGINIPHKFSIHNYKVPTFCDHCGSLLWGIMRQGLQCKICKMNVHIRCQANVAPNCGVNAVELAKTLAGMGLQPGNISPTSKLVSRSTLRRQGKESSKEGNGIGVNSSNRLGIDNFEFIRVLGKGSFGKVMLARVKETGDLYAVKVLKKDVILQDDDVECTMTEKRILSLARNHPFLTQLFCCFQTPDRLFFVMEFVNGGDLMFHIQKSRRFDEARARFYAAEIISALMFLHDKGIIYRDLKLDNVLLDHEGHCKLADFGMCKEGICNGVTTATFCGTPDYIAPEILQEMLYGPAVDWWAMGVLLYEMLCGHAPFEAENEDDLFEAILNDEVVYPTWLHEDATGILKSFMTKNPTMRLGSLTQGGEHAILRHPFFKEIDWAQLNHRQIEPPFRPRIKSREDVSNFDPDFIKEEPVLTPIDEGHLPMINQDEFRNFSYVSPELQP

B1: Flag-tagged RORα (receptor, UniProt P35398 1-523, looked up)
chain: MESAPAAPDPAASEPGSSGADAAAGSRETPLNQESARKSEPPAPVRRQSYSSTSRGISVTKKTHTSQIEIIPCKICGDKSSGIHYGVITCEGCKGFFRRSQQSNATYSCPRQKNCLIDRTSRNRCQHCRLQKCLAVGMSRDAVKFGRMSKKQRDSLYAEVQKHRMQQQQRDHQQQPGEAEPLTPTYNISANGLTELHDDLSNYIDGHTPEGSKADSAVSSFYLDIQPSPDQSGLDINGIKPEPICDYTPASGFFPYCSFTNGETSPTVSMAELEHLAQNISKSHLETCQYLREELQQITWQTFLQEEIENYQNKQREVMWQLCAIKITEAIQYVVEFAKRIDGFMELCQNDQIVLLKAGSLEVVFIRMCRAFDSQNNTVYFDGKYASPDVFKSLGCEDFISFVFEFGKSLCSMHLTEDEIALFSAFVLMSADRSWLQEKVKIEKLQQKIQLALQHVLQKNHREDGILTKLICKVSTLRALCGRHTEKLMAFKAIYPDIVRLHFPPLYKELFTSEFEPAMQIDG
notes: also called Flag-RORα; Flag-RORα WT; not shown: Flag tag
With B1, the binding result with β-catenin [1] is given as “binds”.

B2: RORα (receptor, UniProt P35398 1-523, looked up)
chain: MESAPAAPDPAASEPGSSGADAAAGSRETPLNQESARKSEPPAPVRRQSYSSTSRGISVTKKTHTSQIEIIPCKICGDKSSGIHYGVITCEGCKGFFRRSQQSNATYSCPRQKNCLIDRTSRNRCQHCRLQKCLAVGMSRDAVKFGRMSKKQRDSLYAEVQKHRMQQQQRDHQQQPGEAEPLTPTYNISANGLTELHDDLSNYIDGHTPEGSKADSAVSSFYLDIQPSPDQSGLDINGIKPEPICDYTPASGFFPYCSFTNGETSPTVSMAELEHLAQNISKSHLETCQYLREELQQITWQTFLQEEIENYQNKQREVMWQLCAIKITEAIQYVVEFAKRIDGFMELCQNDQIVLLKAGSLEVVFIRMCRAFDSQNNTVYFDGKYASPDVFKSLGCEDFISFVFEFGKSLCSMHLTEDEIALFSAFVLMSADRSWLQEKVKIEKLQQKIQLALQHVLQKNHREDGILTKLICKVSTLRALCGRHTEKLMAFKAIYPDIVRLHFPPLYKELFTSEFEPAMQIDG
notes: also called retinoic acid-related orphan nuclear receptor (ROR)α; endogenous RORα
Consider B2, for which the binding result in the test with PKCβ2, in the test with PKCδ, in the test with PKCη and in the test with PKCε was “no binding” throughout.

B3: Flag-RORα S35D (receptor, UniProt P35398 1-523, looked up)
chain: MESAPAAPDPAASEPGSSGADAAAGSRETPLNQEDARKSEPPAPVRRQSYSSTSRGISVTKKTHTSQIEIIPCKICGDKSSGIHYGVITCEGCKGFFRRSQQSNATYSCPRQKNCLIDRTSRNRCQHCRLQKCLAVGMSRDAVKFGRMSKKQRDSLYAEVQKHRMQQQQRDHQQQPGEAEPLTPTYNISANGLTELHDDLSNYIDGHTPEGSKADSAVSSFYLDIQPSPDQSGLDINGIKPEPICDYTPASGFFPYCSFTNGETSPTVSMAELEHLAQNISKSHLETCQYLREELQQITWQTFLQEEIENYQNKQREVMWQLCAIKITEAIQYVVEFAKRIDGFMELCQNDQIVLLKAGSLEVVFIRMCRAFDSQNNTVYFDGKYASPDVFKSLGCEDFISFVFEFGKSLCSMHLTEDEIALFSAFVLMSADRSWLQEKVKIEKLQQKIQLALQHVLQKNHREDGILTKLICKVSTLRALCGRHTEKLMAFKAIYPDIVRLHFPPLYKELFTSEFEPAMQIDG
notes: not shown: Flag tag
For B3, the binding result with β-catenin [2] was “binds”.

B4: Flag-RORα DBD mutant (C90A) (receptor, UniProt P35398 1-523, looked up)
chain: MESAPAAPDPAASEPGSSGADAAAGSRETPLNQESARKSEPPAPVRRQSYSSTSRGISVTKKTHTSQIEIIPCKICGDKSSGIHYGVITAEGCKGFFRRSQQSNATYSCPRQKNCLIDRTSRNRCQHCRLQKCLAVGMSRDAVKFGRMSKKQRDSLYAEVQKHRMQQQQRDHQQQPGEAEPLTPTYNISANGLTELHDDLSNYIDGHTPEGSKADSAVSSFYLDIQPSPDQSGLDINGIKPEPICDYTPASGFFPYCSFTNGETSPTVSMAELEHLAQNISKSHLETCQYLREELQQITWQTFLQEEIENYQNKQREVMWQLCAIKITEAIQYVVEFAKRIDGFMELCQNDQIVLLKAGSLEVVFIRMCRAFDSQNNTVYFDGKYASPDVFKSLGCEDFISFVFEFGKSLCSMHLTEDEIALFSAFVLMSADRSWLQEKVKIEKLQQKIQLALQHVLQKNHREDGILTKLICKVSTLRALCGRHTEKLMAFKAIYPDIVRLHFPPLYKELFTSEFEPAMQIDG
notes: also called RORαC90A; not shown: Flag tag
In the case of B4, in the test with β-catenin [2], the binding result is given as “binds”.
